± gives the half width of the 95% confidence interval.
Experiment: folding stability dG unfold (combined trypsin and chymotrypsin); higher = more stable
Procedure: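 Folding stability of de novo designed mini-proteins (<80 aa, no Cys; designed by TrROS, TrMRF, ProteinMPNN and the joint model) was measured by cDNA display proteolysis with trypsin and chymotrypsin. Each protease was used at 11 concentrations in a threefold dilution series plus a no-protease condition. K50 was inferred by Bayesian fitting of sequencing counts, and dG unfold was derived against a sequence-predicted unfolded-state K50 (Tsuboyama et al. method). Sequences shown include variable-length N-terminal GS-type padding (SAGGSAGG...) inside a display construct carrying a PA tag. Rows were kept only if the AF2 dimer inter-PAE was >15, to exclude likely homo-oligomers.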

Row | Sequence | folding stability dG unfold [kcal/mol]
1 | SAGGTIKGLPVEEIKDEIRDLFPDHPMKVDIEPIDEDEGYVRVEIEPPRPNGKTQRQEHTIPIRPDDSAGGS [r16_564_TrROS] | -0.64 ± 0.58
2 | SAGGSAGGSAGGMIIVPVVTEETVDVTFRKTPEGVWEPVGPQTITTTTTLTIDPTKGRLSAGGSAGGSAGGS [r10_93_JUSTAS] | -0.443 ± 0.37
3 | SAGGSAGGSPAEITREEAVELAYETLPATEPAVFVFADPRLLVVYPDGADPSRNRVVEVPLLDSAGGSAGGS [r12_648_TrMRF] | -0.741 ± 0.22
4 | SAGGSAGGSAGGSPVLKTEEKALPNGTVVTTEFLPGGRRREVITPPDGTVKVVEREIERSAGGSAGGSAGGS [r10_1184_JUSTAS] | -0.0994 ± 0.095
5 | SAGGSGMWTPKQVKLLAEPGKSKTITIPGPVSEEEINALLNAGEPVIITLPDGTVLKAEKNTITLESAGGSA [r2_33_JUSTAS] | -0.371 ± 0.15
6 | SAGGSAGGSAGAWTDPDGNPYEVKEATVASLGPENPIVLVRFSENGELRLVPLEQALADLSAGGSAGGSAGG [r17_517_TrMRF] | -0.0575 ± 0.25
7 | SAGGKLKEAFEKNGYKAYVHPDSPVVTVEFYKPVKLENGEWKPKKLGTKTIEVDGVDLEKAYEILLKESAGG [r13_924_TrMRF] | 0.402 ± 0.2
8 | SAGGSAGGGMTGATPTPRTVPLPGDRTATVYERPETGELLVELPGRRLRVSPAALAAGEVALEASAGGSAGG [r6_940_JUSTAS] | < -1
9 | SAGGSAGGSGPALANIPPDAKVTVTPLPDDSYLVDIYYPNGPVEYLDVPVGDKWVKFEVEPEKSAGGSAGGS [r20_50_TrMRF] | < -1
10 | SAGGSAGGSMTVDTTYDPSTDRVTLTVTIPAPDGSELVRTVQSTGDPEAAAAAAAAAVAAAAASAGGSAGGS [r20_33_JUSTAS] | < -1
11 | SAGGSAGGSAGGSPILIPRPDDYVLVVRIEEPRPLPDGDLAPPRIDVRLMPREEVERLLSAGGSAGGSAGGS [r4_238_TrMRF] | 0.378 ± 0.12
12 | SAGGSAGGSAGGPFFMPEQKGTIPADELQKKGGNLTSVEIKVRPWMMELEIEIVYPPGDKSAGGSAGGSAGG [r7_116_TrROS] | 0.0937 ± 0.51
13 | SAGGSAGGSKWKISVHPPNGNSWKIDPGDTIKELVDQMSKENGWPYHIHVSKEEAEKLGLKPVSAGGSAGGS [r12_379_TrROS] | -0.0115 ± 0.16
14 | SAGSEVTLEITLTREVPSGKPVTLTETKTVPLAPSVPVEEVIKALKSPEWTAKVTLYTDGTPVTELTLDSAG [r5_278_JUSTAS] | 0.176 ± 0.069
15 | SAGGSAGGSAGGMYIPGDLVEWVSPVGDKWRVGLIGKPQTFDWKDIPAPSNENIVFVPGSAGGSAGGSAGGS [r10_665_TrMRF] | < -1
16 | SAGGSAGGSAAPEALPPRLVVPRPVLIVDKAPLEEVEVEELRKAAEEFARAVPDAVVLVDEESAGGSAGGSA [r18_499_TrMRF] | 0.0223 ± 0.23
17 | SAGGSAKPGEKLKIRMWNPDGETHEFDVKIPPGVRIRMPDNGQEQTFPPGDEIPFPPNMPIQVEKVSAGGSA [r15_152_TrROS] | -0.121 ± 0.29
18 | SAGGSAGGSAGKKFKITEIHPGDNHHHITVKWKRDGKKRERTVMVPSGPEMAKKADIIIISAGGSAGGSAGG [r11_921_TrROS] | < -1
19 | SAGTVTSSTTPLPDGSLLSTTTTTSPVSGTSVTTSTTTTTPVTPTTPPPPPRPVYPRYYDGVTEPALSLSAG [r5_169_JUSTAS] | -0.639 ± 0.18
20 | SAGGSAGGSMTIVNPGTPETLAATVKETIKAGKKVKVIYVSPDNPEPVAEAEVEGTAEELEKESAGGSAGGS [r12_241_TrMRF] | -0.49 ± 0.29
21 | SAGLFDYLHKHNGLVRAALRRNGPPVVIPRLFRIEPDGDTYKLSVPDPDGVPQDWEVLDVEVFKPEDAISAG [r14_427_TrMRF] | -0.0844 ± 0.18
22 | SAGGSAGGSARIRFPNGYEIEVPRKRNPDGNLEITIESRNPDNPEHREMAKKIARDIADELSAGGSAGGSAG [r3_163_TrROS] | -0.526 ± 0.17
23 | SAGGSAGGSAGGEARDNGVPTIEIPIPPEFKKGMPAEQMVDQLAKQLPPGVKDIHIEPPPSAGGSAGGSAGG [r7_487_TrROS] | 0.376 ± 0.13
24 | SAGGSAGGSKKIVLVLKVKKEKAKEKVEKAKKELEKALPKDYKIKSIEVKYDPETDKVIIVADSAGGSAGGS [r12_308_TrMRF] | -0.0532 ± 0.28

Row | Sequence | folding stability dG unfold [kcal/mol]
25 | PEISELTSEESEDGTTFTETKVTLKDPNSNKKINATRKVETEVVGDSTTVTSTLTLPKDKKTINESYTISPS [r1_374_JUSTAS] | < -1
26 | SAGGSAGGSASYSVTISPEERIEPVVDYKTGERRLVERRRVVVTADPKLSPALKAAILAALSSAGGSAGGSA [r18_438_JUSTAS] | -0.237 ± 0.2
27 | SAGGMKVEDFVLELPTPEGKKILVEAVKVTTDPEAGLISVELKTPDKKEKLTLSPDEYVRGPSPEEFLKSAG [r5_15_JUSTAS] | -0.562 ± 0.33
28 | SAGGSAGGSAGMKVKSIKKLSKDPKNGKETFEITIPENGEKVTIETEPGKFEEVKKKLLKSAGGSAGGSAGG [r17_111_JUSTAS] | -0.0508 ± 0.13
29 | SAGSVPQLIEDKLQEGSPNSSVEVKPVDTLGGTTVLEVKIERIDTSSGNGKLTSEDKIIEVPAGEELGSAGG [r19_8_JUSTAS] | 0.0158 ± 0.086
30 | SAGMSTTTTAEIKAAVEAAAGEGLNVAPPTVTATDGTPISDDTVIEPGAPVPVTVDVPIDPVPPPELRSAGG [r19_278_JUSTAS] | -0.0815 ± 0.28
31 | SAGGSAGGSAGGSKSIYISPDDPNNIRTPDDGEPFKGMPIEEAKKEGIEPRGPNAFRIPSAGGSAGGSAGGS [r4_306_TrROS] | -0.582 ± 0.54
32 | SAGGSAGGSAGGPIEEILASLPPNATVKVSRVVKLTTPDGSLSSIEVEEVITVKKPEKALSAGGSAGGSAGG [r11_347_JUSTAS] | 0.287 ± 0.13
33 | SAGGSAGGSAIPPDAPVEVPVRVRVGGEEFDVTATLTARPDGSVGVDVDVDVPADEAEIEPASAGGSAGGSA [r18_428_TrMRF] | < -1
34 | SAGGSAGGSAGGNPVYRTRAEILETVPVGEDETVWLPGTAAPVSPSTTVLLARVYSVPADSAGGSAGGSAGG [r11_793_TrMRF] | < -1
35 | SAGGSAGGSMLRVEVTLENGEKIEVEIEVPPGEELTLDEILAELKEKYPDLKVTEIKIEFLEPSAGGSAGGS [r12_262_TrROS_Hall] | 3.27 ± 0.28
36 | SAGGSASVSYDPTPGPTRRTTTLLETEEVGPNLKRVKTKVTLFPSDGVPTTSTVTELDLVPPPELPSAGGSA [r15_1035_JUSTAS] | 0.128 ± 0.11
37 | SAGGSAGGSAGGSGMEEIEEKMKKGYTFTVTSSSPNKTYTIKPEEVSKFKDESISVKAESAGGSAGGSAGGS [r4_157_JUSTAS] | < -1
38 | SAGGSAGGSAGGGATVTETRTEFVPPTGIVRVESVVTYPDGSTRRTSSVVVVERPGAQPSAGGSAGGSAGGS [r10_290_JUSTAS] | 0.386 ± 0.13
39 | SAGGSAGGSPGVRVKPVGDHYVVEIPLPPSVPLGRAVFEVEGGYAETVAVDPERGIATVRVPLSAGGSAGGS [r12_675_TrMRF] | -0.352 ± 0.15
40 | SAGGSAGGSPMPILSASADPGPDGTRTLTLRLGDKTVTFTVPASRPALIPAPADSVISLDPAGSAGGSAGGS [r12_373_TrMRF] | -0.64 ± 0.16
41 | SAGGSAGGSAGAVTVTVDAAPDPLPDREYVVVTVERTLPSGEVLAESRVFDRAEEALEAASAGGSAGGSAGG [r11_792_TrMRF] | -0.209 ± 0.26
42 | SAGGSAGGSAGDPNYVQVTIRMPMERRNPEDGKWERNPMEITIPFKSKDQADKIAEEIGISAGGSAGGSAGG [r11_984_TrROS] | -0.375 ± 0.23
43 | SAGMKPGETRHIPIRPGMPPEEFIEEIEAEGPVKIWFPGRKREIDSPDDIEDNFRNFPEPMPIEVKVPSAGG [r19_95_TrROS] | 0.157 ± 0.28
44 | SDPLGTPVPLTYRVLLTFPGVSRPFLGPGGVVRSVSVNPTVLVPGPANSYPAVRELAEPLGLSVSVTPLASA [r9_1209_TrMRF] | -0.871 ± 0.23
45 | SAGGSAMPRSSVSIVSVERAPDGTVTIPTKTTLTTPDGTVTTEESTVTLEVPPGRELSEEEIKKLLSAGGSA [r15_836_JUSTAS] | 0.53 ± 0.11
46 | SAGGSAGGSAGSNVVYLGEEVITEVDPYSDKPYTVKVKVYLEPTPEGEKIIEEVLEKELLSAGGSAGGSAGG [r11_113_JUSTAS] | -0.94 ± 0.33
47 | SAGGSAGGSAGGPVFDMSNFEEVKEAAEKAGIDVVEEDPEKNTIYVDPSKPELIKEAIQKSAGGSAGGSAGG [r7_285_JUSTAS] | 0.205 ± 0.4

Source: the supplement of paper PMC12764529
